B1: Coiled-coil domain-containing protein 8 (Homo sapiens), Q9H0W5 (parent)
chain: MLQIGEDVDYLLIPREVRLAGGVWRVISKPATKEAEFRERLTQFLEEEGRTLEDVARIMEKSTPHPPQPPKKPKEPRVRRRVQQMVTPPPRLVVGTYDSSNASDSEFSDFETSRDKSRQGPRRGKKVRKMPVSYLGSKFLGSDLESEDDEELVEAFLRRQEKQPSAPPARRRVNLPVPMFEDNLGPQLSKADRWREYVSQVSWGKLKRRVKGWAPRAGPGVGEARLASTAVESAGVSSAPEGTSPGDRLGNAGDVCVPQASPRRWRPKINWASFRRRRKEQTAPTGQGADIEADQGGEAADSQREEAIADQREGAAGNQRAGAPADQGAEAADNQREEAADNQRAGAPAEEGAEAADNQREEAADNQRAEAPADQRSQGTDNHREEAADNQRAEAPADQGSEVTDNQREEAVHDQRERAPAVQGADNQRAQARAGQRAEAAHNQRAGAPGIQEAEVSAAQGTTGTAPGARARKQVKTVRFQTPGRFSWFCKRRRAFWHTPRLPTLPKRVPRAGEARNLRVLRAEARAEAEQGEQEDQL
partner: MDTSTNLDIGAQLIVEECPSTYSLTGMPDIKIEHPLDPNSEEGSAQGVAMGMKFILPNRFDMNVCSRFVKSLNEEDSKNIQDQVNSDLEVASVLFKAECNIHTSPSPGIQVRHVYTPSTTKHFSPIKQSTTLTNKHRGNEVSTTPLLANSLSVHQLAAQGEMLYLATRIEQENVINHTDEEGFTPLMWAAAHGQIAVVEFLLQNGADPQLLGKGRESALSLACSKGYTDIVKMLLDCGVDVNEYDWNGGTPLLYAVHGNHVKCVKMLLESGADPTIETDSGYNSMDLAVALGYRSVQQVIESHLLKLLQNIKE
B2: Ankyrin repeat family A protein 2 (Homo sapiens), Q9H9E1 (parent)
chain: B1 partner
partner: B1 chain

Variants of: B1
Details: with anra2_human ANKRA2, Q9H9E1

Variant	effect of a mutation on the interaction
P503A	disrupting interaction strength
T504A	disrupting interaction strength

Variants of: B2
Details: with ccdc8_human CCDC8, Q9H0W5

Variant	effect of a mutation on the interaction
K31R	with no effect
W188A	disrupting interaction strength

From IntAct's records for PubMed 25752541
